The results in this text go back to PMC2254190, “T Cell Receptor Engagement Triggers Its CD3ε and CD3ζ Subunits to Adopt a Compact, Locked Conformation” (PLoS ONE, 2008).

A word on the Kd: it is the equilibrium constant for the complex coming apart. High values mean a looser complex, low ones a tighter complex.

This assay deals with SH3.1 domain of Nck (NMR work, in preparation) (UniProt P16333 2-61). As to the kind of experiment: not stated; affinity told in the discussion without method.

B1: CD3ε polypeptide (NMR work, in preparation) (domain or fragment)
chain: KNRKAKAKPVTRGAGAGGRQRGQNKERPPPVPNPDYEPIRKGQRDLYSGLNQRRI
modifications: The construct is not described (unpublished NMR work, 'in preparation'). The whole cytoplasmic tail, by UniProt topology, is used because it holds the PPS with its upstream and downstream charged …
Take B1: the Kd was about 100 nM.
